Measured values taken from the nanobody polyreactivity screen of Harvey et al. (2022).

Experiment: yeast display, Sf9 membrane polyspecificity reagent, FACS + sequencing; frameworks hold sequencing errors
In short: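 Nanobodies came from a synthetic yeast display library in Saccharomyces cerevisiae BJ5465, induced with galactose for 36–48 hours and stained for 1 hour at 4 °C with 10% biotinylated, detergent-solubilized Sf9 membrane reagent. Cells were enriched on streptavidin microbeads and then FACS-sorted, with low and high (top ~1%) gates set on anti-HA fluorescence for expression and streptavidin fluorescence for reagent binding. Each polyreactivity label reflects the gate a clone came from. Genes were amplified by colony PCR, sequenced by MiSeq 2 × 250 and filtered by CDR length.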

**Q.** For “QVQLVESGGGLVQAGGSLRLSCAASGFTFCSNAMGWYRQAPGKERELVAAITWSGGRTYYADSVKGRFTISRDNAKNTVYLQMNSLKPEDTAVYYCNAYRNWWWSQYDYWGQGTQVTVSS”, which “polyreactivity (PSR sort gate)” value is on record?
**A.** The value was “high polyreactivity”.

**Q.** Which “polyreactivity (PSR sort gate)” value does the source give for “QVQLVESGGGLVQAGGSLRLSCAASGFTFDENAMGWSRQAPGINYSRASTYYADSVKGRFTISRDNAKNTVYLQMISLKPEDTAVYYCNKASYWGSGFDYWGQGTQVTVSS” here?
**A.** The value was “low polyreactivity”.

**Q.** For “QVQLVESGGGLVQAGGSLRLSCAASGFTFDEYAMGWYRQAPGKEREFVATISSSGGSTYYADSVKGRFTISRDNAKNTVYLQMNSLKPEDTAVYYCAADVRRLYTSGVDYWWHSEYDYWGQGTQVTLSS”, which “polyreactivity (PSR sort gate)” value is on record?
**A.** Its value is “low polyreactivity”.

**Q.** For “QVQLVESGGGLVQAGGSLRLSCAASGFTFDFYAMGWYRQAPGKERELVAAINWSGSSTYYADSVKGRFTISRDTAKNTVYLQMNSLKPEDTAVYYCAAQVYYTLFPDVYTMYYWGQGTQVTVSS”, which “polyreactivity (PSR sort gate)” value is on record?
**A.** Its value is “high polyreactivity”.

**Q.** For “QVQLVESGGGLVQAGGSLRLSCAASGFTFDFYAMGWYRQAPGKERELVAAISKNDGTTYYADSVKGRFTISRDNAKNTVYLQMYSLKPVDTAVYYCAAESGYPVYTYVSSGDYWGQGTQVTVSS”, which “polyreactivity (PSR sort gate)” value is on record?
**A.** Its value is “low polyreactivity”.

**Q.** For “QVQLVESGGGLVQAGGSLRLSCAASGFTFDGYAMGWYRQAPGKERELVAAISQSGGSTYYADSVKGRVTISRDNAKNTVYLQMNSLKPEDTAVYYCNAYTGYRIRYDYWGQGTQVTVSS”, which “polyreactivity (PSR sort gate)” value is on record?
**A.** The value was “high polyreactivity”.

**Q.** For “QVQLVESGGGLVQAGGSLRLSCAASGFTFDGYAMGWYRQAPGKERELVAAITRRGGRTYYADSVKGRFTISRDNAKNTVYLQMNSLKPEDTAVYFCAAERYGDRFYGAYDYWGQGTQVTVSS”, which “polyreactivity (PSR sort gate)” value is on record?
**A.** Its value is “high polyreactivity”.

**Q.** Which “polyreactivity (PSR sort gate)” value does the source give for “QVQLVESGGGLVQAGGSLRLSCAASGFTFDINTMGWYRQAPGKERELVAAITYSGGSTYYADSVKGRFTISRDNAKNTVYLQMNSLKPEDTAVYYCATTWYFVASWYVAIYDYWGQGTQVTVSS” here?
**A.** Its value is “low polyreactivity”.

**Q.** Which “polyreactivity (PSR sort gate)” value does the source give for “QVQLVESGGGLVQAGGSLRLSCAASGFTFDIYAMGWYRQAPGKERELVATISFTGDTTSYADSVKGRFTISRHNAKNTVYLQMNSLKPEDTAVYYCAADGSYPLSVGRENLHYAEFDYWGQGTQVTVSS” here?
**A.** The value was “low polyreactivity”.

**Q.** For “QVQLVESGGGLVQAGGSLRLSCAASGFTFDIYAMGWYRQAPGTERELVATISFTGDTTSYADSVKGRFTISRDNAKTTVYLQMNSLKPEDTAVYYCAADGSYPLSVGRENLHYAEFDYWGQGTQVTVSS”, which “polyreactivity (PSR sort gate)” value is on record?
**A.** Its value is “low polyreactivity”.

**Q.** Which “polyreactivity (PSR sort gate)” value does the source give for “QVQLVESGGGLVQAGGSLRLSCAASGFTFDKYGMGWYRQAPGKERELVAAISSGGSTNYADSVKGRFTISRDNAKNTVYLQMNSLKPEDSAVYYCAARYYRYGRFRAYSWWTYGYWGQGTQVTVSS” here?
**A.** Its value is “high polyreactivity”.

**Q.** With “QVQLVESGGGLVQAGGSLRLSCAASGFTFDNYGMGWYRQAPGKERDLVAAISTSGGSTYYADSVKGRFTISRDNEKNTVYFQMNSLKPEDTADYYCNVDFYEYSSVSYDYWGQGTQVTVSS” as the sequence, how does the “polyreactivity (PSR sort gate)” value read?
**A.** The value was “high polyreactivity”.

**Q.** For “QVQLVESGGGLVQAGGSLRLSCAASGFTFDQYTMGWYRQAPGKERELVAAISSSGGSTYYADSVKGRFTISRDNAKNTVYLQMNSLKPEDTAVFYCAARFLLTQRFSHDYWGQGTQVTVSS”, which “polyreactivity (PSR sort gate)” value is on record?
**A.** The value was “low polyreactivity”.

**Q.** For “QVQLVESGGGLVQAGGSLRLSCAASGFTFDSNGMGWYRQAPGKERELVAAISTGGSTYYADSVKGRFTISRDNAKTTVYIPMNSLKPEDTPVYYCARDTPYPDTWYGYWGQGTQVTVSS”, which “polyreactivity (PSR sort gate)” value is on record?
**A.** Its value is “low polyreactivity”.

**Q.** For “QVQLVESGGGLVQAGGSLRLSCAASGFTFDTYAMGWYRQAPGKERELVAAISWSGGSTYYADSVKGRFTISRDNAKNTVYLQMNSLKPEDTAVYYCAAETPVDWWSTSYNYWGQGTQVTVSS”, which “polyreactivity (PSR sort gate)” value is on record?
**A.** The value was “high polyreactivity”.

**Q.** For “QVQLVESGGGLVQAGGSLRLSCAASGFTFDTYGMGWYRQAPGKERELVAAITGDGDSTYYADSVKGRFTISRDNAKNTVYLQMNSLKPEDTAVYYCATDQDVVGYWTIYYYAWGYEYCGQGTQVTVSS”, which “polyreactivity (PSR sort gate)” value is on record?
**A.** The value was “low polyreactivity”.

**Q.** With “QVQLVESGGGLVQAGGSLRLSCAASGFTFDVYAKGLYRQAPGKERELVAAISIGANTYYADSVKGRFTISRDNAKSTVYLQMNSLKPEDTAVYYCAKRAYAPQYGYWGQGTQVTVSS” as the sequence, how does the “polyreactivity (PSR sort gate)” value read?
**A.** The value was “low polyreactivity”.

**Q.** For “QVQLVESGGGLVQAGGSLRLSCAASGFTFDWYAMGWYRPAPGTERELVAAISTRGTSTYYADSVKGRFTISRDNAKNTVYLQMNSLKPEDTAVYYCAKRSYHGGDYWGQGTQVTVSS”, which “polyreactivity (PSR sort gate)” value is on record?
**A.** The value was “high polyreactivity”.

**Q.** For “QVQLVESGGGLVQAGGSLRLSCAASGFTFDYNAMGWYRQAPGKERELVAAISNTGDSTYYADSVKGRFTISRDNAKNTVYLQMNSLKPEDTAVYYCAATSVPRYYYWGQGTQVTVSS”, which “polyreactivity (PSR sort gate)” value is on record?
**A.** The value was “low polyreactivity”.

**Q.** For “QVQLVESGGGLVQAGGSLRLSCAASGFTFDYYAMGWYRQAPGKERELVAAISKRGGSTYYADSVKGRFTISRDNAKNTVYLQMNSLKPEDTAVYYCAAASYSSPRTSSGNYWGQGTQVYVSS”, which “polyreactivity (PSR sort gate)” value is on record?
**A.** Its value is “high polyreactivity”.

**Q.** For “QVQLVESGGGLVQAGGSLRLSCAASGFTFDYYAMGWYRQAPGKERELVAAISRRGTSTYYADSVKGRFTISRDNAKNTVYLQMYSLKPEDTAVYYCNAVTSSFYNRDSDYWGQGTQVTVSS”, which “polyreactivity (PSR sort gate)” value is on record?
**A.** The value was “high polyreactivity”.

**Q.** With “QVQLVESGGGLVQAGGSLRLSCAASGFTFDYYAMGWYRQAPGKERELVATINGASSTNYADSVKGRFTISRDNAKNTVYLQMNSLKPEDTAVYYCNARYYGPDFVLAYDYWGQGTQVTESS” as the sequence, how does the “polyreactivity (PSR sort gate)” value read?
**A.** The value was “low polyreactivity”.

**Q.** For “QVQLVESGGGLVQAGGSLRLSCAASGFTFDYYDLGWYRQAPGKERELVAGITYSGGRTRYADSVKGRFTISRDNAKNTVYLQMNSLKPEDTSVDYCAARPGYPYRMNYWGQGTQVTVSS”, which “polyreactivity (PSR sort gate)” value is on record?
**A.** The value was “low polyreactivity”.

**Q.** Which “polyreactivity (PSR sort gate)” value does the source give for “QVQLVESGGGLVQAGGSLRLSCAASGFTFDYYTMGWSRQAPGKERELVAAISWSGGSTYYADSVKGRFTISRDNAKNTVYLQMNSLKPEDTAVYYCAVDGPKTDDIENYWGQGTQVTVSS” here?
**A.** Its value is “low polyreactivity”.

**Q.** With “QVQLVESGGGLVQAGGSLRLSCAASGFTFEKYAMGRYIQAPGKERELDASISWSGGRTRYADSVKGRFTISRDNAKNTVYLQMNSLKPEDTAVYYCAARPLFGWRGYNYWGQGTQVTVSS” as the sequence, how does the “polyreactivity (PSR sort gate)” value read?
**A.** The value was “high polyreactivity”.

**Q.** For “QVQLVESGGGLVQAGGSLRLSCAASGFTFENYAMGWYRQAPGKERELVAAITRTGGITYYADSVKGRFTISRDNAKNTVYLQLNSLKPEDTAVYYCDADDTWTRPKNYDRYDYWGQGTQVTVSS”, which “polyreactivity (PSR sort gate)” value is on record?
**A.** Its value is “low polyreactivity”.

**Q.** With “QVQLVESGGGLVQAGGSLRLSCAASGFTFFIYAMGWYSQAPGKEREFVAAITGSGGSTYYADSVKGRFTISRDNAKNTVYLQMNSLKPEDTAVYYCNTAGYDYYSTQAYDYWGQGTQVTVSS” as the sequence, how does the “polyreactivity (PSR sort gate)” value read?
**A.** The value was “high polyreactivity”.

**Q.** With “QVQLVESGGGLVQAGGSLRLSCAASGFTFFLNAMGWYRQAPGKERELVAAINRSGGSTYYADSVKGRFTISRDNAKNTVYLQMNSLKPEDTAVYYCATYSFWHYAYDYWGQGTQVTVSS” as the sequence, how does the “polyreactivity (PSR sort gate)” value read?
**A.** Its value is “low polyreactivity”.

**Q.** For “QVQLVESGGGLVQAGGSLRLSCAASGFTFFPNAMGWYRQAPGKERELFAAISRSDDNTFYADSVKGRITISRDNAKNTVYLQMNSLKPEDTAVYYCDKSAVPWRYPRGYDYWGQGTQVTVSS”, which “polyreactivity (PSR sort gate)” value is on record?
**A.** Its value is “low polyreactivity”.

**Q.** Which “polyreactivity (PSR sort gate)” value does the source give for “QVQLVESGGGLVQAGGSLRLSCAASGFTFFRYAMGWYRQAPGKERDLVAAITSGGGRTYYADSVKGRFTISRYNAKNTVYLQMNRLKPEDTAVYYCNAVRRVDMYYWGLGTQVTVSS” here?
**A.** Its value is “high polyreactivity”.

**Q.** With “QVQLVESGGGLVQAGGSLRLSCAASGFTFFVNTMGWYRQAPGKERELVAAISYDGGSTTYADSVKGRFTISRDNAKNTVYLQMNSLKPEDTAVYYCAAEYWAPFDYGTNSGYEYWGQGTQVTVSS” as the sequence, how does the “polyreactivity (PSR sort gate)” value read?
**A.** Its value is “low polyreactivity”.
